The labels stand for the following.
B1: tetrameric antibody hu3G8VH-1 / hu3G8VL-1 (antibody, IgG1, V domains shown)
VH: QVTLRESGPALVKPTQTLTLTCTFSGFSLSTSGMGVGWIRQPPGKALEWLAHIWWDDDKRYNPALKSRLTISKDTSKNQVVLTMTNMDPVDTATYYCARINPAWFAYWGQGTLVTVSS
VL: DIVMTQSPDSLAVSLGERATINCKASQSVDFDGDSFMNWYQQKPGQPPKLLIYTTSNLESGVPDRFSGSGSGTDFTLTISSLQAEDVAVYYCQQSNEDPYTFGQGTKLEIK
notes: VH on human Cgamma1 constant region (IgG1)
B2: tetrameric antibody hu3G8VH-22 / hu3G8VL-1 (antibody, IgG1, V domains shown)
VH: QVTLRESGPALVKPTQTLTLTCTFSGFSLSTSGVGVGWIRQPPGKALEWLAHIWWDDDKRYSPSLKSRLTISKDTSKNQVVLTMTNMDPVDTATYYCARINPAYFAYWGQGTLVTVS
VL: DIVMTQSPDSLAVSLGERATINCKASQSVDFDGDSFMNWYQQKPGQPPKLLIYTTSNLESGVPDRFSGSGSGTDFTLTISSLQAEDVAVYYCQQSNEDPYTFGQGTKLEIK
notes: VH on human Cgamma1 (IgG1)
B3: tetrameric antibody hu3G8VH-5 / hu3G8VL-1 (antibody, IgG1, V domains shown)
VH: QVTLRESGPALVKPTQTLTLTCTFSGFSLSTSGMGVGWIRQPPGKALEWLAHIWWDDDKRYNPALKSRLTISKDTSKNQVVLTMTNMDPVDTATYYCAQINPAWFAYWGQGTLVTVSS
VL: DIVMTQSPDSLAVSLGERATINCKASQSVDFDGDSFMNWYQQKPGQPPKLLIYTTSNLESGVPDRFSGSGSGTDFTLTISSLQAEDVAVYYCQQSNEDPYTFGQGTKLEIK
notes: VH on human Cgamma1 (IgG1)

The target in this assay is T1, CD16A (human, UniProt P08637 17-208, limits assumed).
T1 construct: Target of the hu3G8 VH/VL variant screen of section 5.1.2; also called FcγRIIIA
T1 sequence (P08637 17-208 limits assumed): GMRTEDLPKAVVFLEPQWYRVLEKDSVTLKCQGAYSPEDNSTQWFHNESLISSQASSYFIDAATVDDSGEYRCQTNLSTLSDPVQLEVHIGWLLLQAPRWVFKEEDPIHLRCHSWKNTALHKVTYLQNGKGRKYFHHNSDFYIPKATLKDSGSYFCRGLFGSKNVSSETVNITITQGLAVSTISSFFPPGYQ
In words: tetrameric IgG1 with hu3G8VL-1 light chain; binding to CD16A, method not named.
With B1, the binding result was “binds”.

Take B2: the binding result is “binds”. Then B3, with “binds”.
